Consider 14 molecules from EP4671280A1 (Nanjing Leads Biolabs Co., Ltd., dated 2025).

The target in test [1] is T1, cynomolgus monkey Nectin-4 expressed on CHO-K1 cells (cynomolgus monkey, UniProt Q96NY8 32-370 (human entry), limits assumed).
T1 construct: also called CHO-K1/cynoNectin4; cells expressing the cynomolgus monkey Nectin-4 protein
T1 chain: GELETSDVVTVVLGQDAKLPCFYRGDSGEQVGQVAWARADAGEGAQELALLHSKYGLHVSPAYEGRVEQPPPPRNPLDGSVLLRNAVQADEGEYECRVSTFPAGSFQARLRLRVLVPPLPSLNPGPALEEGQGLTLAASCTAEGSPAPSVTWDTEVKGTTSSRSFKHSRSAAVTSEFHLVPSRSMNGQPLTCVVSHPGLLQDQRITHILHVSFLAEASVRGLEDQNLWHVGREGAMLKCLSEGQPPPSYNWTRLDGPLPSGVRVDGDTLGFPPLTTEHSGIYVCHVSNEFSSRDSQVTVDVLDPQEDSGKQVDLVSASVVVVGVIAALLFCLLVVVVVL
The test is described as follows: flow cytometry on CHO-K1/cynoNectin4 cells. Background: In flow cytometry, cells or beads pass a laser one at a time.

Test [2] deals with T2, human Nectin-4 expressed on HT-1376 tumor cells (human, UniProt Q96NY8 32-510).
T2 construct: whole, on cells; also called HT-1376 cells expressing human Nectin-4
T2 sequence (looked up): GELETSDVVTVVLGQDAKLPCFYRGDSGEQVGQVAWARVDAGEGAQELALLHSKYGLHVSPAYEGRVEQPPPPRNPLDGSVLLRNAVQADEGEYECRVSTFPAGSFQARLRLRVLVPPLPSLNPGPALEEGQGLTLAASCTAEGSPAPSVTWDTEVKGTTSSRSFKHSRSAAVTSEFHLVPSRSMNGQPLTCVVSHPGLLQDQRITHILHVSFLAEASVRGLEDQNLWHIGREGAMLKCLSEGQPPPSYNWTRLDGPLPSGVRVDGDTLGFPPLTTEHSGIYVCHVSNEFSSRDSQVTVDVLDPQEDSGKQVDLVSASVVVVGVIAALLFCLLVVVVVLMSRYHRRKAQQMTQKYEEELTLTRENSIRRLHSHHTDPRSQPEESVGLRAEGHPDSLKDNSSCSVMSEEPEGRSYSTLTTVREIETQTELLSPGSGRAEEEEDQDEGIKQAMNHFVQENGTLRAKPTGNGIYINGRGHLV
The test is described as follows: flow cytometry on HT-1376 cells.

Test [3] addresses T3, human Nectin-2 protein (Sino Biological, Cat. No. 10005-H08H) (human, UniProt Q92692 32-360).
T3 sequence (looked up): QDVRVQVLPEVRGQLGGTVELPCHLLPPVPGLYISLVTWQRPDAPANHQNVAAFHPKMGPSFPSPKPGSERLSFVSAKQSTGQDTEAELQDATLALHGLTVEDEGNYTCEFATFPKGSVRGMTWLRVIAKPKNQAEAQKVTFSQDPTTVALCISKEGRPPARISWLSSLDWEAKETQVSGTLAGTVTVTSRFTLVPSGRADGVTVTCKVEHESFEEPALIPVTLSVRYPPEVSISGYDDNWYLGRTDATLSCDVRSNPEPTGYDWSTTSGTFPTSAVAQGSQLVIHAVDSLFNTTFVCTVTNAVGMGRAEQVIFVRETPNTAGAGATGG
The test is described as follows: ELISA, Nectin family protein immobilised on plate. A general note: An ELISA detects its analyte on a solid surface through an enzyme-linked reagent.

Test [4] has as its target human Nectin-3 protein (Sino Biological, Cat. No. 10852-H08H) (human, UniProt Q9NQS3 58-404). The test is described as follows: ELISA, Nectin family protein immobilised on plate.

human Nectin-3 protein (Sino Biological, Cat. No. 10852-H08H), sequence (Q9NQS3 58-404 limits assumed): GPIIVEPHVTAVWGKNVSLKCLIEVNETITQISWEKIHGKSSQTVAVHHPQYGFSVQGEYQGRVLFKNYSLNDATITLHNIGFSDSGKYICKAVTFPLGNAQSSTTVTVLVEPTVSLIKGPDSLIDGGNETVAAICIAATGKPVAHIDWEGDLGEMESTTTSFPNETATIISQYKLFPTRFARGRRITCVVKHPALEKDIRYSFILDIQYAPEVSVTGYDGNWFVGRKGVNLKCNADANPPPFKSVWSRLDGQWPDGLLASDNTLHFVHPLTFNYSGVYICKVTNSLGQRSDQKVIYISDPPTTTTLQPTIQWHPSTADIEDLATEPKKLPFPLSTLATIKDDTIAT

B1: Antibody 23-H4F3 (murine chimeric anti-Nectin-4 antibody) (antibody, human IgG1, kappa, V domains shown)
VH: QVQLQQSGPELVKPGASVRISCKASGYTFTSYYIHWVKQRPGQGLEWIGWIYPGNVNTKYNEKFKGKATLTADKSSSTAYMQLISLTSEDSAVYFCARGVYYFDFWGQGTTLTVSS
VL: SIVMTQTPKFLLVSAGDRVTLTCKASQSVSNDVAWFQQKPGQSPKLLIYYALNRYTGVPDRFTGSGYGTDFTFTISTVQAEDLAVYFCQQDYSSPYTFGGGTKLEIKR
notes: Mouse variable regions on human IgG1 / human kappa constant regions, expressed in ExpiCHO-S cells; also called chimeric antibody 23-H4F3
What is called EC50 is the concentration at which the effect is half-maximal. On to B1, for which the EC50 in test [1] is 0.411 nM; in test [2] it was 0.064 nM. In addition, the binding result in test [3] and in test [4] was “no binding” throughout.

B2: Enfortumab (antibody, human IgG1, kappa, V domains shown)
VH: EVQLVESGGGLVQPGGSLRLSCAASGFTFSSYNMNWVRQAPGKGLEWVSYISSSSSTIYYADSVKGRFTISRDNAKNSLSLQMNSLRDEDTAVYYCARAYYYGMDVWGQGTTVTVSS
VL: DIQMTQSPSSVSASVGDRVTITCRASQGISGWLAWYQQKPGKAPKFLIYAASTLQSGVPSRFSGSGSGTDFTLTISSLQPEDFATYYCQQANSFPPTFGGGTKVEIKR
notes: used as control antibody (naked antibody, no drug); also called control antibody enfortumab
As for B2, the binding result in test [1] and in test [2] was “binds” in each case.

B3: Antibody 32-A12C7 (murine chimeric anti-Nectin-4 antibody) (antibody, human IgG1, kappa, V domains shown)
VH: QVQLQQPGAELVMPGASVKMSCKASGYTFTDYWMHWVKQRPGQGLEWIGAIDTSDSYTSYNQKFKGKATLTVDESSSTAYMQLSSLTSEDSAVYYCARWGSTMITWGYGMDNWGQGTSVTVSS
VL: DIQMTQTTSSLSASLGDRVTISCRASQDINNYLNWYQQKPDGTVKLLIYYTSRLHSGVPSRFSGSGSGTDYSLTISNLEQEDIATYFCQQGNTLPWTFGGGTKLEIKR
notes: Mouse variable regions on human IgG1 / human kappa constant regions
For B3, the figures for the EC50 in test [1] and in test [2] were 1.05 nM and 0.3 nM, respectively.

B4: huH4F3-2 (antibody, human IgG1, kappa, V domains shown)
VH: QVQLVQSGAEVKKPGASVKVSCKASGYTFTSYYIHWVRQAPGQRLEWMGWIYPGNVNTKYSQKFQGRVTLTRDKSASTAYMELSSLRSEDTAVYYCARGVYYFDFWGQGTLVTVSS
VL: AIQMTQSPSSLSASVGDRVTITCRASQSVSNDVGWYQQKPGKAPKLLIYYALNRYTGVPSRFSGSGSGTDFTLTISSLQPEDFATYYCQQDYSSPYTFGQGTKLEIKR
notes: Humanized 23-H4F3, human IgG1/kappa
Consider B4, for which the binding result in test [1] and in test [2] was “binds” in each case.

B5: huH4F3-4 (antibody, human IgG1, kappa, V domains shown)
VH: QVQLVQSGAEVKKPGASVKVSCKASGYTFTSYYIHWVRQAPGQRLEWMGWIYPGNVNTKYSQKFQGRVTLTRDKSASTAYMELSSLRSEDTAVYYCARGVYYFDFWGQGTLVTVSS
VL: DIVMTQSPDSLAVSLGERATINCKASQSVSNDVAWYQQKPGQPPKLLIYYALNRESGVPDRFSGSGSGTDFTLTISSLQAEDVAVYYCQQDYSSPYTFGQGTKLEIKR
notes: as for B4
B5: the binding result in test [1] and in test [2] was “binds” in each case.

B6: huH4F3-10 (antibody, human IgG1, kappa, V domains shown)
VH: QVQLVQSGAEVKKPGASVKVSCKASGYTFTSYYIHWVRQAPGQRLEWMGWIYPGNVNTKYSQKFQGRVTLTRDKSASTAYMELSSLRSEDTAVYFCARGVYYFDFWGQGTLVTVSS
VL: DIVMTQSPDSLAVSLGERATINCKSSQSVSNDVAWYQQKPGQPPKLLIYYALNRESGVPDRFSGSGSGTDFTLTISSLQAEDVAVYYCQQDYSSPYTFGQGTKLEIKR
notes: as for B4
Consider B6, for which the binding result in test [1] and in test [2] was “binds” in each case.

B7: huH4F3-3 (antibody, human IgG1, kappa, V domains shown)
VH: QVQLVQSGAEVKKPGASVKVSCKASGYTFTSYYIHWVRQAPGQRLEWMGWIYPGNVNTKYSQKFQGRVTLTRDKSASTAYMELSSLRSEDTAVYYCARGVYYFDFWGQGTLVTVSS
VL: AIQMTQSPSSLSASVGDRVTITCRASQSVSNDVGWFQQKPGKAPKLLIYYALNRYTGVPSRFSGSGSGTDFTFTISSLQPEDFATYYCQQDYSSPYTFGQGTKLEIKR
notes: as for B4
B7: the binding result in test [1] and in test [2] was “binds” each time.

B8: huH4F3-7 (antibody, human IgG1, kappa, V domains shown)
VH: QVQLVQSGAEVKKPGASVKVSCKASGYTFTSYYIHWVRQAPGQRLEWMGWIYPGNVNTKYSQKFQGRVTLTRDKSASTAYMELSSLRSEDTAVYFCARGVYYFDFWGQGTLVTVSS
VL: AIQMTQSPSSLSASVGDRVTITCRASQSVSNDVGWYQQKPGKAPKLLIYYALNRYTGVPSRFSGSGSGTDFTLTISSLQPEDFATYYCQQDYSSPYTFGQGTKLEIKR
notes: as for B4
B8: the binding result in test [1] and in test [2] was “binds” in each case.

B9: huH4F3-8 (antibody, human IgG1, kappa, V domains shown)
VH: QVQLVQSGAEVKKPGASVKVSCKASGYTFTSYYIHWVRQAPGQRLEWMGWIYPGNVNTKYSQKFQGRVTLTRDKSASTAYMELSSLRSEDTAVYFCARGVYYFDFWGQGTLVTVSS
VL: AIQMTQSPSSLSASVGDRVTITCRASQSVSNDVGWFQQKPGKAPKLLIYYALNRYTGVPSRFSGSGSGTDFTFTISSLQPEDFATYYCQQDYSSPYTFGQGTKLEIKR
notes: as for B4
As to B9, the binding result in test [1] and in test [2] was “binds” in each case.

B10: huH4F3-1 (antibody, human IgG1, kappa, V domains shown)
VH: QVQLVQSGAEVKKPGASVKVSCKASGYTFTSYYIHWVRQAPGQRLEWMGWIYPGNVNTKYSQKFQGRVTLTRDKSASTAYMELSSLRSEDTAVYYCARGVYYFDFWGQGTLVTVSS
VL: AIQMTQSPSSLSASVGDRVTITCRASQSVSNDVGWYQQKPGKAPKLLIYYALNLQSGVPSRFSGSGSGTDFTLTISSLQPEDFATYYCQQDYSSPYTFGQGTKLEIKR
notes: as for B4
For the molecule B10, the binding result in test [1] and in test [2] was “binds” throughout.

B11: huH4F3-9 (antibody, human IgG1, kappa, V domains shown)
VH: QVQLVQSGAEVKKPGASVKVSCKASGYTFTSYYIHWVRQAPGQRLEWMGWIYPGNVNTKYSQKFQGRVTLTRDKSASTAYMELSSLRSEDTAVYFCARGVYYFDFWGQGTLVTVSS
VL: DIVMTQSPDSLAVSLGERATINCKASQSVSNDVAWYQQKPGQPPKLLIYYALNRESGVPDRFSGSGSGTDFTLTISSLQAEDVAVYYCQQDYSSPYTFGQGTKLEIKR
notes: as for B4
With B11, the binding result in test [1] and in test [2] was “binds” in each case.

B12: huH4F3-6 (antibody, human IgG1, kappa, V domains shown)
VH: QVQLVQSGAEVKKPGASVKVSCKASGYTFTSYYIHWVRQAPGQRLEWMGWIYPGNVNTKYSQKFQGRVTLTRDKSASTAYMELSSLRSEDTAVYFCARGVYYFDFWGQGTLVTVSS
VL: AIQMTQSPSSLSASVGDRVTITCRASQSVSNDVGWYQQKPGKAPKLLIYYALNLQSGVPSRFSGSGSGTDFTLTISSLQPEDFATYYCQQDYSSPYTFGQGTKLEIKR
notes: as for B4
As to B12, the binding result in test [1] and in test [2] was “binds” in each case.

B13: huH4F3-5 (antibody, human IgG1, kappa, V domains shown)
VH: QVQLVQSGAEVKKPGASVKVSCKASGYTFTSYYIHWVRQAPGQRLEWMGWIYPGNVNTKYSQKFQGRVTLTRDKSASTAYMELSSLRSEDTAVYYCARGVYYFDFWGQGTLVTVSS
VL: DIVMTQSPDSLAVSLGERATINCKSSQSVSNDVAWYQQKPGQPPKLLIYYALNRESGVPDRFSGSGSGTDFTLTISSLQAEDVAVYYCQQDYSSPYTFGQGTKLEIKR
notes: as for B4
Consider B13, for which the binding result in test [1] and in test [2] was “binds” in each case.

B14: Antibody 6-B9B6 (murine chimeric anti-Nectin-4 antibody) (antibody, human IgG1, kappa, V domains shown)
VH: EVHLVESGGGLVQPGGSLKLSCAASGFTFSSYGMSWVRQTPDKRLELVATINNIGGSTFPPDSVKGRFTVSRDNAKNTLYLQMSSLKSEDTAMYYCARAYDYVPFAYWGQGTLVTVSA
VL: DIQMTQSSSYLSVSLGGRVTITCKASDHINNWLAWYQQKPGNAPRLLISGATSLETGVPSRFSGSGSGKDYALSIASLQTEDVATYYCQQYWSTPFTFGSGTKLEIKR
notes: as for B3
Take B14: the EC50 in test [1] came out at 0.719 nM; in test [2] it was 0.249 nM. In addition, the binding result in test [3] and in test [4] was “no binding” throughout.
